US20210324080A1 (JIANGSU HUAIYU PHARMACEUTICAL, published 2021)
Substitutions are numbered along the chain they refer to.

T1: CTLA-4-hFc (immunogen A; hFc-labeled CTLA-4 extracellular domain protein) (human, UniProt P16410 36-161)
T1 construct: range 36-161; Made in HEK293 cells, purified on protein A; also called CLTA-4-hFc; CTLA-4 protein; not shown: human IgG Fc fragment (hFc) of the pCpC vector
T1 sequence (looked up): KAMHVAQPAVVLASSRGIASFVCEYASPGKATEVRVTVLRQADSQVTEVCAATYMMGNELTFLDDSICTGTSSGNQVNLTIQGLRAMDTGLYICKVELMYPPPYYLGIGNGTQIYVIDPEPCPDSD

T2: CTLA-4 on human T lymphocytes (PBMC, CD3+ T cells) (human, UniProt P16410 36-223)
T2 sequence (looked up): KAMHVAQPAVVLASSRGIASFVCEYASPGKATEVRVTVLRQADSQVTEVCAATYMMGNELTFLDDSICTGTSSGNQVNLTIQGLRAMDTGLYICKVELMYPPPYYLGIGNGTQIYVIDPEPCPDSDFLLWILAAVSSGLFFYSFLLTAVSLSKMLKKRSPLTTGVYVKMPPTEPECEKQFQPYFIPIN

T3: human CTLA-4 (Y201V), full length, on transfected cells (human, UniProt P16410 36-223)
T3 construct: whole, on cells; also called hCTLA-4; HEK293-hCTLA-4 (Y201V)
T3 sequence (looked up): T2 sequence (looked up) with Y166V

B1: 31C12F3 fully human CTLA-4 antibody (human IgG1, kappa) (antibody, V domains shown)
VH: QVQLVESGGGVVQPGRSLILSCAASGFTFSSYGMHWVRQAPGKGLEWVAVVWYDGSNKYYADSVKGRFTISRDNSKNTLYLQMSSLRAEDTAVYYCARGGIVVPGLFEYWGQGSLVTVSS
VL: DIQMTQSPSSLSASVGDRVAITCRTSQSISNLLNWYQQKPGKAPELLIYAPSSFQSGVPSRFRGSGSGTDFTLTISSLQPEDFATYYCQQSYSTPFTFGPGTKVDIK
notes: also called mAb010
B2: 92C8B6 fully human CTLA-4 antibody (human IgG1, kappa) (antibody, V domains shown)
VH: QVQLVESGGGVVQPGRSLRLSCAASGFTFSNFGMHWVRQAPGKGLEWVAVIWYDGSNKYYADSVKGRFTISRDNSKNTLFLQMNGLRAEDTAVYYCAKGGILMAGTLDYWGQGTLVTVSS
VL: B1 VL with A20T, T25A, I29V, N31T, L32Y, E45K, P51A, R63S, Y87F
notes: also called mAb42; mAb042
B3: 40C4C6 fully human CTLA-4 antibody (human IgG1, kappa) (antibody, V domains shown)
VH: QVQLVESGGGVVQPGRSLRLSCAASGFTFSSYGMHWVRQAPGKGLEWVAVIWYDGRNKYYADSVKGRFTISRDNSKNTLYLQMNSLRAEDTAVYYCARASGSYSYYFDYWGQGTLVTVSS
VL: DIQMTQSPSSLSASVGGRVTITCRASQSISSFLNWYQHELGKAPKLLIYGASSLQSGVPSRFSGSGSGTDFTLTISSLQPEDFATYYCQQTYSTPFTFGPGTKVDIK
notes: also called mAb09; mAb009
B4: 97A8D1 fully human CTLA-4 antibody (human IgG1, kappa) (antibody, V domains shown)
VH: QVQLVESGGGVVQPGRSLRLSCVASGFTFNNYGMNWVRQAPGKGLEWVAVIWYGGRNKFYADSVKGRFTISRDNSKNTLYLEMNSLRAEDTAVYYCARADWGGWFDPWGQGTLVTVSS
VL: EIVLTQSPGTLSLSPGERATLSCRASQSVSSTYLAWYQQKPGQAPRLLIHGAFSRATGIPDRFSGSGSGPDFTLTISRLEPEDFAVYYCQQYGTSPFTFGPGTKVDIK
notes: also called mAb49; mAb049

These binders were tested against T4, monkey CTLA-4, full length, on transfected HEK293 cells (monkey) (assay: FACS, monkey CTLA-4 expressing cells).
T4 construct: whole, on cells; also called cCTLA-4; HEK293-cCTLA-4
From the text: The pIRES plasmid with the monkey-derived CTLA-4 full-length gene was transfected into the HEK293 cell line to construct a HEK293 stable cell line containing monkey CTLA-4 (herein referred to as HEK293-cCTLA-4 stable cell line), wherein the database accession number of the monkey CTLA-4 nucleotide sequence is XM_005574014.1. The HEK293-hCTLA-4 stable cell line and HEK293-cCTLA-4 stable cell line were expanded in a T-75 cell culture flask to a 90% confluence. The medium was aspirated, and the cells were washed with HBSS buffer (Hanks Balanced Salt Solution, purchased from Invitrogen) twice, then treated with an enzyme-free cell dissociation fluid (Versene solution, purchased from Life technology) and the cells were collected. The cells were washed with HBSS buffer twice. After counted, the cells were diluted with HBSS buffer to 2×10⁶ cells per ml, added with 1% goat serum blocking solution, wherein the percentage was the mass percantage. Cells were incubated on ice for 30 minutes, then washed twice with HBSS buffer by centrifugation. The collected cells were suspended in the FACS buffer (HBSS containing 1% BSA, wherein the percentage was the mass percantage) to 2×10⁶ cells/ml, added as 100 microliters per well to a 96-well FACS reaction plate, added with 100 microliters per well of the purified CTLA-4 antibody sample to be tested, incubated on ice for 2 hours. The plate was washed twice with the FACS buffer by centrifugation, added with 100 microliters of fluorescent (Alexa 488)-labeled secondary antibodies (purchased from Invitrogen) per well, and incubated on ice for 1 hour. The plate was washed 3 times with FACS buffer by centrifugation, added with 100 μl fixative solution [4% (v/v) Paraformaldehyde] per well to suspend the cells. 10 minutes later, it was washed 2 times with FACS buffer by centrifugation. The cells were suspended with 100 microliters of FACS buffer, FACS (FACS Calibur, purchased from BD) was used for detection and the results were analyzed.

| MFI at 0.000128 nM | MFI at 0.0128 nM | MFI at 0.064 nM | MFI at 0.32 nM | MFI at 1.6 nM | MFI at 8 nM | MFI at 40 nM | MFI at 200 nM | Binder |
| --- | --- | --- | --- | --- | --- | --- | --- | --- |
| 2 | 34 | 98 | 261 | 455 | 654 | 712 | 668 | B1 |
| 2 | 22 | 68 | 208 | 465 | 722 | 800 | 711 | B2 |
| 2 | 23 | 69 | 219 | 421 | 619 | 626 | 643 | B3 |
| 2 | 23 | 67 | 225 | 513 | 754 | 910 | 831 | B4 |

Each binder was assayed against T1, CTLA-4-hFc (immunogen A; hFc-labeled …) (assay: receptor-ligand blocking assay: CTLA-4 protein, antibody titrated, blocked ligand B7.1, inhibition (%)).
Procedure: (§1) CTLA-4 extracellular domain protein (CTLA-4-hFc) was diluted with PBS to a final concentration of 1.0 μg/mL, and then added to a 96-well ELISA plate as 100 μl per well. The plate was covered with a plastic film and incubated overnight at 4° C. The plate was washed twice with plate washing solution [PBS containing 0.01% (v/v) Tween 20] on the next day, and added with blocking solution [PBS containing 0.01% (v/v) Tween 20 and 1% (w/w) BSA] and blocked at room temperature for 2 hours. […] After 2 hours, the plate was washed 3 times with a plate washing solution [PBS containing 0.01% (v/v) Tween 20]. HRP (horseradish peroxidase) labeled avidin diluent (purchased from Sigma) was added 100 microliters per well, and after the plate was incubated for 2 hours at 37° C., it was washed with plate washing solution [PBS containing 0.01% (v/v) Tween 20] for 3 times. […] TMB substrate was added to each well. After incubated at room temperature for 30 minutes, the plate was added with […] stop solution (1.0N HCl) to each well. An ELISA plate reader (SpectraMax 384plus, Molecular Device) was used to read the A450 nm value.

| IC50 (read off the curve) | Binder |
| --- | --- |
| ~1 nM | B1 |
| ~2 nM | B2 |
| ~1 nM | B3 |

What follows are binders tested against T2, CTLA-4 on human T lymphocytes (PBMC, …) (assay: cell-based or functional assay).

| IL-2 secretion, pg/ml, at 0.13 ug/ml, N = 1 | IL-2 secretion, pg/ml, at 0.13 ug/ml, N = 2 | IL-2 secretion, pg/ml, at 0.37 ug/ml, N = 1 | IL-2 secretion, pg/ml, at 0.37 ug/ml, N = 2 | IL-2 secretion, pg/ml, at 1.1 ug/ml, N = 1 | IL-2 secretion, pg/ml, at 1.1 ug/ml, N = 2 | IL-2 secretion, pg/ml, at 3.3 ug/ml, N = 1 | IL-2 secretion, pg/ml, at 3.3 ug/ml, N = 2 | IL-2 secretion, pg/ml, at 10 ug/ml, N = 1 | IL-2 secretion, pg/ml, at 10 ug/ml, N = 2 | Binder |
| --- | --- | --- | --- | --- | --- | --- | --- | --- | --- | --- |
| 1660 pg/mL | 1630 pg/mL | 1760 pg/mL | 2000 pg/mL | 2650 pg/mL | 3630 pg/mL | 4420 pg/mL | 3330 pg/mL | 5020 pg/mL | 3810 pg/mL | B1 |
| 1570 pg/mL | 1390 pg/mL | 2810 pg/mL | 1860 pg/mL | 3610 pg/mL | 2930 pg/mL | 4860 pg/mL | 3490 pg/mL | 6670 pg/mL | 5200 pg/mL | B2 |
| 2140 pg/mL | 1830 pg/mL | 2370 pg/mL | 2160 pg/mL | 3200 pg/mL | 3010 pg/mL | 3770 pg/mL | 3620 pg/mL | 5270 pg/mL | 4810 pg/mL | B3 |
| 1520 pg/mL | 1500 pg/mL | 2110 pg/mL | 1960 pg/mL | 2660 pg/mL | 2610 pg/mL | 4660 pg/mL | 3330 pg/mL | 5080 pg/mL | 5560 pg/mL | B4 |

Same assay, conditions: not given

| IL-2 secretion, pg/ml, at 30 ug/ml, N = 1 | IL-2 secretion, pg/ml, at 30 ug/ml, N = 2 | Binder |
| --- | --- | --- |
| 5920 pg/mL | 7370 pg/mL | B1 |
| 7240 pg/mL | 6590 pg/mL | B2 |
| 6840 pg/mL | 7410 pg/mL | B3 |
| 6090 pg/mL | 7540 pg/mL | B4 |

What follows are binders tested against T1, CTLA-4-hFc (immunogen A; hFc-labeled …) (assay: blocking assay, CTLA-4 protein, competitor B7.1).
Procedure: as §1

| % Block at 0.000128 nM | % Block at 0.0128 nM | % Block at 0.064 nM | % Block at 0.32 nM | % Block at 1.6 nM | % Block at 8 nM | % Block at 40 nM | % Block at 200 nM | Binder |
| --- | --- | --- | --- | --- | --- | --- | --- | --- |
| 0% | 5.1% | 30.4% | 74.5% | 95.9% | 98.5% | 99.1% | 99.3% | B1 |
| 0% | 5.3% | 21.4% | 65.1% | 93.7% | 98.1% | 98.9% | 99.3% | B2 |
| 0% | 9.3% | 35% | 82.1% | 98.1% | 99.2% | 99.4% | 99.4% | B3 |
| 0% | 6.1% | 28.7% | 67.8% | 90.6% | 95.2% | 97.2% | 98.4% | B4 |

Each binder was assayed against T3, human CTLA-4 (Y201V), full length, on … (assay: FACS, human CTLA-4 expressing cells).

| MFI at 0.000128 nM | MFI at 0.0128 nM | MFI at 0.064 nM | MFI at 0.32 nM | MFI at 1.6 nM | MFI at 8 nM | MFI at 40 nM | MFI at 200 nM | Binder |
| --- | --- | --- | --- | --- | --- | --- | --- | --- |
| 3 | 34 | 96 | 260 | 547 | 756 | 941 | 998 | B1 |
| 3 | 23 | 67 | 203 | 509 | 827 | 1040 | 1060 | B2 |
| 3 | 24 | 74 | 233 | 553 | 795 | 967 | 963 | B3 |
| 3 | 22 | 66 | 196 | 580 | 919 | 1020 | 1020 | B4 |
